Measured values as given in article PMC11929449, “Epitope-directed selection of GPCR nanobody ligands with evolvable function” (Proceedings of the National Academy of Sciences of the …, 2025).
Like-named read-outs stand apart in the source and are kept apart here.

Tests used:
[1] = molecular target: T1, FLAG-tagged wild-type human angiotensin II type I receptor (FLAG-AT1R) (Homo sapiens, UniProt P30556)
[2] = molecular target: T2, FLAG-tagged human angiotensin II type I receptor (FLAG-AT1R) (human); experiment: flow cytometry on cells; soluble nanobody titrated on Expi293F TetR cells expressing FLAG-AT1R, receptor pre-bound to losartan (10 μM, 5 μM in washes); 20 mM Hepes pH 7.4, 150 mM NaCl, 0.1% BSA, 4 °C; detected with αV5-AlexaFluor647; conditions: one partner purified
T2 construct: also called WT receptor; pMAS85; source: Expi293F TetR, transfected, purified in LMNG/CHS (M1-αFLAG resin, SEC); also Expi293F TetR cells stably expressing FLAG-AT1R under a tetracycline-inducible promoter, on intact cells; not shown: FLAG, N-terminal, kept
T2 chain: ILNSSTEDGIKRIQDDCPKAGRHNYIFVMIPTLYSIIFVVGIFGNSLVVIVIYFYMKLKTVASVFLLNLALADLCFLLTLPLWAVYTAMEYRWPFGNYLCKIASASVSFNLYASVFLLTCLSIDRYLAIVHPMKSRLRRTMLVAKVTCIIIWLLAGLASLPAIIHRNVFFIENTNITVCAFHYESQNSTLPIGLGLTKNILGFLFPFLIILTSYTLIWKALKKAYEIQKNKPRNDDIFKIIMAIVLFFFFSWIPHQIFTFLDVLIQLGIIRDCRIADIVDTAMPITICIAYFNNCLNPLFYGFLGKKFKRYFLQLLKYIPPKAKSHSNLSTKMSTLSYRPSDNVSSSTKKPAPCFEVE

[3] = molecular target: T1, FLAG-tagged wild-type human angiotensin …; experiment: flow cytometry on cells; nanobody displayed on yeast; 100 nM unliganded detergent-purified FLAG-AT1R in solution, detected with fluorophore-conjugated M1-αFLAG; 4 °C, 30 min; 20 mM Hepes pH 7.5, 150 mM NaCl, 2.8 mM CaCl2, 0.05% LMNG, 0.005% CHS; conditions: one partner purified
[4] = molecular target: T1, FLAG-tagged wild-type human angiotensin …; experiment: flow cytometry on cells; purified nanobody (single point 250 or 500 nM, or titrated) on Expi293F TetR cells expressing FLAG-AT1R preincubated with 10 μM losartan at 4 °C for 30 min; detected with αV5-AlexaFluor647; 20 mM Hepes pH 7.4, 150 mM NaCl, 0.1% BSA; conditions: one partner purified
[5] = molecular target: T2, FLAG-tagged human angiotensin II type I …; experiment: flow cytometry on cells; soluble nanobody titrated on Expi293F TetR cells expressing FLAG-AT1R, unliganded receptor; 20 mM Hepes pH 7.4, 150 mM NaCl, 0.1% BSA, 4 °C; detected with αV5-AlexaFluor647; conditions: one partner purified
[6] = molecular target: FLAG-tagged wild-type human angiotensin II type I receptor (FLAG-AT1R) (human) (UniProt P30556); experiment: flow cytometry on cells; purified nanobody (single point 250 nM, or titrated) on Expi293F TetR cells expressing FLAG-AT1R preincubated with 10 μM olmesartan at 4 °C for 30 min; detected with αV5-AlexaFluor647; 20 mM Hepes pH 7.4, 150 mM NaCl, 0.1% BSA
[7] = molecular target: T1, FLAG-tagged wild-type human angiotensin …; experiment: flow cytometry on cells; purified nanobody (single point 250 or 500 nM, or titrated) on Expi293F TetR cells expressing FLAG-AT1R, unliganded; 1 h; detected with αV5-AlexaFluor647; 20 mM Hepes pH 7.4, 150 mM NaCl, 0.1% BSA; conditions: one partner purified

T1 sequence (P30556 whole entry): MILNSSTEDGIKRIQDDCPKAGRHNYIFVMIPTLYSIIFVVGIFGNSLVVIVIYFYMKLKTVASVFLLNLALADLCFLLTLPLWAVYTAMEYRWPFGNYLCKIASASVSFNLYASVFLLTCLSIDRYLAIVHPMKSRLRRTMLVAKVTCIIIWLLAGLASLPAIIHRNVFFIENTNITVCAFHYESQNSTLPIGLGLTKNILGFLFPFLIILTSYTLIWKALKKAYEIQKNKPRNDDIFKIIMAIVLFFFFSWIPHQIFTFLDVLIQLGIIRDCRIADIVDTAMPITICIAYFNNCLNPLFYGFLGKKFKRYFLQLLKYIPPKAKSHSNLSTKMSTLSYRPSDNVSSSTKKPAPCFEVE

B1: AT201 (VHH)
VHH: QVQLQESGGGLVQAGGSLRLSCAASGTISDPPYMGWYRQAPGKERELVAAIDVGANTYYADSVKGRFTISRDNAKNTVYLQMNSLKPEDTAVYYCAVEYDAQVPHQYWGQGTQVTVSS
binding result [1]: binds

B2: nanobody AT206 (VHH)
VHH: QVQLQESGGGLVQAGGSLRLSCAASGSISYYRMGWYRQAPGKEREFVAGIGVGTTTNYADSVKGRFTISRDNAKNTVYLQMNSLKPEDTAVYYCAAYNYFPRSIVYYYVYWGQGTQVTVSS
notes: source: E. coli BL21(DE3), periplasm, purified (Ni-NTA); not shown: V5, C-terminal, kept
Kd [2]: 363 nM

B3: AT206, yeast-displayed (VHH)
VHH: QVQLQESGGGLVQAGGSLRLSCAASGSISYYRMGWYRQAPGKEREFVAGIGVGTTTNYADSVKGRFTISRDNAKNTVYLQMNSLKPEDTAVYYCAAYNYFPRSIVYYYVYWGQGTQVTVSS
notes: synthetic nanobody AT206; also in the deposited structures; the anchor is not described here
binding result [3]: binds

B4: AT206 (VHH)
VHH: QVQLQESGGGLVQAGGSLRLSCAASGSISYYRMGWYRQAPGKEREFVAGIGVGTTTNYADSVKGRFTISRDNAKNTVYLQMNSLKPEDTAVYYCAAYNYFPRSIVYYYVYWGQGTQVTVSS
notes: synthetic nanobody AT206; also in the deposited structures; also called parent clone of AT118-AT206; source: E. coli BL21(DE3), periplasm, purified (Ni-NTA); not shown: V5, C-terminal, kept
binding result [4]: binds

B5: AT205 (VHH)
VHH: QVQLQESGGGLVQAGGSLRLSCAASGYIFYDSVMGWYRQAPGKEREFVAAIAAGSSTNYADSVKGRFTISRDNAKNTVYLQMNSLKPEDTAVYYCGEYYNWLHQYWGQGTQVTVSS
notes: synthetic nanobody AT205; source: E. coli BL21(DE3), periplasm, purified (Ni-NTA); not shown: V5, C-terminal, kept
binding result [4]: binds

B6: AT212 (VHH)
VHH: QVQLQESGGGLVQAGGSLRLSCAASGSISNYKYMGWYRQAPGKERELVATIGGGATTNYADSVKGRFTISRDNAKNTVYLQMNSLKPEDTAVYYCAAVRAGYSLYYPYFYYWGQGTQVTVSS
binding result [1]: binds

B7: AT210 (VHH)
VHH: QVQLQESGGGLVQAGGSLRLSCAASGTISSWSFMGWYRQAPGKEREFVATIAPGSSTNYADSVKGRFTISRDNAKNTVYLQMNSLKPEDTAVYYCAVYYGVPRFHVYWGQGTQVTVSS
binding result [1]: binds

B8: AT118-H CDR1-AT206 CDR2 CDR3 chimeric nanobody (AT118-AT206) (VHH)
VHH: QVQLQESGGGLVQAGGSLRLSCAASDYIYRRYRMGWYRQAPGKEREFVAGIGVGTTTNYADSVKGRFTISRDNAKNTVYLQMNSLKPEDTAVYYCAAYNYFPRSIVYYYVYWGQGTQVTVSS
notes: AT206 with its CDR1 replaced by CDR1 of AT118-H and the G26D stabilising substitution; also called AT118-H G26D CDR1, AT206 CDR 2&3; source: E. coli BL21(DE3), periplasm, purified (Ni-NTA); not shown: V5, C-terminal, kept
Kd [5]: 206 nM | Kd [2]: 153 nM

B9: AT118-H CDR1-AT206 CDR2 CDR3 chimeric nanobody (AT118-AT206) (VHH)
VHH: QVQLQESGGGLVQAGGSLRLSCAASDYIYRRYRMGWYRQAPGKEREFVAGIGVGTTTNYADSVKGRFTISRDNAKNTVYLQMNSLKPEDTAVYYCAAYNYFPRSIVYYYVYWGQGTQVTVSS
notes: as the chain of AT206 with CDR1 replaced by CDR1 of AT118-H and the stabilising substitution G26D; also called AT118-AT206 chimera; source: E. coli BL21(DE3), periplasm, purified (Ni-NTA); not shown: V5, C-terminal, kept
fold increase in affinity over AT206 [4]: 2 fold

B10: AT208 (VHH)
VHH: QVQLQESGGGLVQAGGSLRLSCAASGYIFTRYRMGWYRQAPGKEREFVAAIGDGGTTNYADSVKGRFTISRDNAKNTVYLQMNSLKPEDTAVYYCAAYYVSRPNYGTIYVYWGQGTQVTVSS
notes: synthetic nanobody AT208; source: E. coli BL21(DE3), periplasm, purified (Ni-NTA); not shown: V5, C-terminal, kept
binding result [4]: binds

B11: AT211 (VHH)
VHH: QVQLQESGGGLVQAGGSLRLSCAASGTISHSAGMGWYRQAPGKERELVAAISGGTITNYADSVKGRFTISRDNAKNTVYLQMNSLKPEDTAVYYCAALGYWRRAGGTYYVVHYYWGQGTQVTVSS
notes: synthetic nanobody AT211; source: E. coli BL21(DE3), periplasm, purified (Ni-NTA); not shown: V5, C-terminal, kept
binding result [4]: binds

B12: AT209 (VHH)
VHH: QVQLQESGGGLVQAGGSLRLSCAASGYIFYRYSMGWYRQAPGKEREFVAGISYGATTNYADSVKGRFTISRDNAKNTVYLQMNSLKPEDTAVYYCAAWGGRTLYFVYWGQGTQVTVSS
Kd [6]: 100 nM

B13: AT209 L103D (VHH)
VHH: QVQLQESGGGLVQAGGSLRLSCAASGYIFYRYSMGWYRQAPGKEREFVAGISYGATTNYADSVKGRFTISRDNAKNTVYLQMNSLKPEDTAVYYCAAWGGRTDYFVYWGQGTQVTVSS
notes: as the chain of AT209 with L103D in CDR3; also called AT209 L103D^CDR3; AT209 L103D variant; source: E. coli BL21(DE3), periplasm, purified (Ni-NTA); not shown: V5, C-terminal, kept
binding result [7]: binds

B14: nanobody AT209 L103D (VHH)
VHH: QVQLQESGGGLVQAGGSLRLSCAASGYIFYRYSMGWYRQAPGKEREFVAGISYGATTNYADSVKGRFTISRDNAKNTVYLQMNSLKPEDTAVYYCAAWGGRTDYFVYWGQGTQVTVSS
notes: the substitution L103D is still to be applied; also called AT209 L103D^CDR3; source: E. coli BL21(DE3), periplasm, purified (Ni-NTA); not shown: V5, C-terminal, kept
Kd [5]: 144 nM

B15: AT207 (VHH)
VHH: QVQLQESGGGLVQAGGSLRLSCAASGYIFTHSSMGWYRQAPGKEREFVAAITVGANTNYADSVKGRFTISRDNAKNTVYLQMNSLKPEDTAVYYCAAYNPFYPVYIYWGQGTQVTVSS
notes: synthetic nanobody AT207; source: E. coli BL21(DE3), periplasm, purified (Ni-NTA); not shown: V5, C-terminal, kept
binding result [4]: binds

B16: AT203 (VHH)
VHH: QVQLQESGGLVQAGGSLRLSCAASGYISRSYDMGWYRQAPGKERELVASINEGSTTNYADSVKGRFTISRDNAKNTVYLQMNSLKPEDTAVYYCAAYTYGHGDYHVYWGQGTQVTVSS
binding result [1]: binds

B17: AT213 (VHH)
VHH: QVQLQESGGGLVQAGGSLRLSCAASGYIFYGATMGWYRQAPGKEREFVAGINYGGSTNYADSVKGRFTISRDNAKNTVYLQMNSLKPEDTAVYYCAVWDTYAQRRSSYFVYWGQGTQVTVSS
binding result [1]: binds
